In publication PMC11870435 (2025):

Target: H3HK68 full length hemagglutinin WT trimer (A/Hong Kong/1/1968(H3N2)) (Influenza A virus A/Hong …, UniProt Q91MA7)
Test: BLI

Sequence of H3HK68 full length hemagglutinin WT trimer (A/Hong Kong/1/1968(H3N2)) (Q91MA7 17-566, one chain of several): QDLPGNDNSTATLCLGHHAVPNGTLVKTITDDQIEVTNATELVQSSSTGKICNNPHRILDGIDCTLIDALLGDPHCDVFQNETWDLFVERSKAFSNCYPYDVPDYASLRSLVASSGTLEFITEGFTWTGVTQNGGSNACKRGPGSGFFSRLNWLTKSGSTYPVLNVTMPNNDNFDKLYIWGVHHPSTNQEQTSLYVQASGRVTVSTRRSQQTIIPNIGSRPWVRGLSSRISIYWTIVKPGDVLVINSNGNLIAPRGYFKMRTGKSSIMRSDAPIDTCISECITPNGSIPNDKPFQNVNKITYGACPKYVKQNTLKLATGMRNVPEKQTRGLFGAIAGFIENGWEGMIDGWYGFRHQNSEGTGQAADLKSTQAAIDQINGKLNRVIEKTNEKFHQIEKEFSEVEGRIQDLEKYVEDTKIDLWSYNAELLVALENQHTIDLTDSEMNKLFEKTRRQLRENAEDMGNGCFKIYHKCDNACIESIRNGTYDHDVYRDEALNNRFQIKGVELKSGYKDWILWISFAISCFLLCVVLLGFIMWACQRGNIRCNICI

B1: F045-92 IgG (H3 RBS-specific antibody) (antibody, V domains shown)
VH: EVQLVESGAEVKKPGSSVKVSCRASGTFYKYAINWVRQAPGQGLEWMGGIIPFFGTTNYAQKFQGRLTITADGSTNTAYMQLDSLRSEDTAVYYCAGPSITESHYCLDCAAKDYYYGLDVWGQGTTVTVSS
VL: not shown
- Kd: 10 nM
